Key:
[1] = molecular target: PII-like signaling protein SbtB; assay: cryo-EM structure; SbtA-SbtB complex purified in the presence of AMP; 3.15 Å resolution
[2] = molecular target: Synechocystis sp. PCC 6803 SbtA (Synechocystis sp. PCC 6803); assay: cryo-EM structure; free SbtA, purified; 3.50 Å resolution
[3] = molecular target: Synechocystis sp. PCC 6803 SbtA (Synechocystis sp. PCC 6803); assay: cryo-EM structure; SbtA-SbtB complex purified in the presence of AMP; 3.15 Å resolution

Row | stoichiometry N [1] | stoichiometry N [2] | stoichiometry N [3] | Substance
1 | 3 |  |  | PII-like signaling protein SbtB (natural protein)
2 |  | 3 | 3 | Synechocystis sp. PCC 6803 SbtA (natural protein)

Reference: paper PMC8352866
